Results as given in patent US20240425575A1 (SOTER BIOPHARMA PTE, published 2024).

B1: B2-F10 (VHH)
VHH: QVQLVESGGGLVQAGGSLRLSCGASGSAVSITLMAWYRQAPGKQRELVAGISNIGDTNYVDSVKDRFTISRINAKNAMYLQMNSLKPEDTAVYYCFAQDWGGHHYWGQGTQVTVSS
notes: Tested as E. coli TG1 culture supernatant (phagemid pComb3XSS); also called anti-ANG2 heavy-chain single-domain antibody B2-F10
B2: B4-C11 (VHH)
VHH: QVQLVESGGGLVQAGGSLRLSCAASGSTFSNVVAGWYRQAPGKQRELVAGISNIGDTRYADSVKGRFTISRDNAKKAVYLQMNSLKPEDTAVYYCYAKYWARDYWGQGTQVTVSS
notes: Tested as E. coli TG1 culture supernatant (phagemid pComb3XSS); also called anti-ANG2 heavy-chain single-domain antibody B4-C11
B3: B3-H7 (VHH)
VHH: EVQVVESGGGLVQAGGSLRLSCAASGSTAINSVAGWYRQAPGKQRELVAGISNIGDTRYADSVKGRFTISRDNAKKTVYLQMNSLKSEDTAVYYCYAKYWARDYWGQGTQVTVSS
notes: Tested as E. coli TG1 culture supernatant (phagemid pComb3XSS); also called anti-ANG2 heavy-chain single-domain antibody B3-H7
B4: B1-H9 (VHH)
VHH: EVQLVESGGDLVQAGGSLRLSCAASGSTFSSTIAGWYRQAPGKQRELVAGISNIGDTRYADSVKGRFTISRDNAKKTVYLQMNSLKPEDTAVYYCYAKYWARDYWGQGTQVTVSS
notes: Tested as E. coli TG1 culture supernatant (phagemid pComb3XSS); also called anti-ANG2 heavy-chain single-domain antibody B1-H9
B5: B1-G8 (VHH)
VHH: QVQLVESGGGLVQTGDSLRLSCVAPGISFSNRGMAWYRQAPGKQRELVAAIDSAGSQRYAGSVKDRFTISRDNAKNTVFLQMNSLKPEDTAVYYCNQPRFNLWGQGTQVTVSS
notes: Tested as E. coli TG1 culture supernatant (phagemid pComb3XSS); also called anti-ANG2 heavy-chain single-domain antibody B1-G8
B6: B1-G3 (VHH)
VHH: EVQVVESGGGLVQPGGSLRLSCVASMPSGISFSNRGMAWYRQAPGKQRELVAAIDSAGSTRYQDSVKGRFTISRDNAKNTVFLQMNSLKPEDTAVYYCNQPAFKAWGQGTQVTVSS
notes: Tested as E. coli TG1 culture supernatant (phagemid pComb3XSS); also called anti-ANG2 heavy-chain single-domain antibody B1-G3
B7: B3-C11 (VHH)
VHH: EVQLVESGGGLVQAGGSLRLSCFVSGSTFSASLMGWYRQAPGKERELVAGISNIGNTVYADSAKGRFTISRDGAKNTVHLQMNALKPEDTAVYYCYATVPRAAWGQGTQVTVSS
notes: Tested as E. coli TG1 culture supernatant (phagemid pComb3XSS); also called anti-ANG2 heavy-chain single-domain antibody B3-C11
B8: B2-A6 (VHH)
VHH: QLQLVESGGGLVQAGGSLRLSCFVSGSTFSASLMGWYRQAPGKERELVAGISNIGNTVYADSAKGRFTISRDGAKNTVHLQMNALKPEDTAVYYCYATVPRAAWGQGTQVTVSS
notes: Tested as E. coli TG1 culture supernatant (phagemid pComb3XSS); also called anti-ANG2 heavy-chain single-domain antibody B2-A6
B9: B2-E2 (VHH)
VHH: EVQLVESGGGLVQPGESLRLSCVASGFPSGFTFSDYQMYWYRQAPGKERELVAIISNDGLRKTYADSVKGRFTISRDNAKNTMFLQMNSLKPEDTAVYVCNVRRANRDDWGQGTQVTVSS
notes: Tested as E. coli TG1 culture supernatant (phagemid pComb3XSS); also called anti-ANG2 heavy-chain single-domain antibody B2-E2
B10: B4-D3 (VHH)
VHH: QLQLVESGGGLVQPGGSLRLSCVASGASGISFSNRGMAWYRQAPGKQRELVAAIDSAGSPAYAGSVKGRFTISRDNAKNTVFLQMNSLKPEDTAVYYCNQPRFNLWGLGTQVTVSS
notes: Tested as E. coli TG1 culture supernatant; also called anti-ANG2 heavy-chain single-domain antibody B4-D3

The binders below were run against T1, recombinant human ANG2 protein corresponding to Lys275-Phe496 of human ANG2 (human, UniProt O15123 275-496) (assay: ELISA, hANG2 coated, E. coli supernatant, anti-VHH-HRP).
T1 construct: also called hANG2
T1 sequence: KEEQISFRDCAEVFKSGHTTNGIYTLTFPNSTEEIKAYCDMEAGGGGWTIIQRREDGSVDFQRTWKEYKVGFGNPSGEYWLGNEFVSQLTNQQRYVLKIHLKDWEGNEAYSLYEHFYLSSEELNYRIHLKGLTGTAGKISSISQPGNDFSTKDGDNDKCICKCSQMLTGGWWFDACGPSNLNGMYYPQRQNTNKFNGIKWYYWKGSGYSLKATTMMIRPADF
Method: Single colonies of TG1 host strains of the obtained ten strains of heavy-chain single-domain antibodies were selected, inoculated and cultured overnight. On the next day, the overnight strains were transferred, amplified, induced by 0.5 mM IPTG and cultured in a shaker overnight at 37° C. On the next day, centrifugation was performed to collect supernatant for detection.
An ELISA plate was separately coated with an hANG2 protein solution and BSA in […] and placed overnight at 4° C. Supernatant was discarded, and 300 μL blocking solution (PBS containing 3% BSA) was added to each well and blocked for 2 h at 37° C. Supernatant collected after centrifugation was added to wells of the ELISA plate in 200 μL per well and subjected to standing incubation for 2 h at room temperature, and supernatant was discarded. Washing was performed with PBST (PBS contained 0.1% Tween 20) in 200 μL/well three times. Diluted HRP-labeled anti-VHH secondary antibodies (Genscript, A01861) were added in a volume of 100 μL/well and incubated for 1 h at room temperature, wherein the secondary antibodies were used after dilution according to 1:10000 with a diluent of PBS containing 1% BSA. Washing was performed with PBST in 200 μL/well five times. A TMB color developing solution (BD, 55214) was added in 100 μL/well, and color developing was performed for 8 min at 37° C.2M HCl stopping solution was added in 100 μL/well. After the stopping solution was added, values at 450 nm were read with a microplate reader within 30 minutes.

Point of comparison: B3, “OD Value Obtained after Binding to hANG2” value 1.82 OD 450 nm. Against it:
- B1 — higher, 2.06 OD 450 nm
- B2 — lower, 1.58 OD 450 nm
- B4 — lower, 1.5 OD 450 nm
- B5 — higher, 2.02 OD 450 nm
- B6 — lower, 1.57 OD 450 nm
- B7 — lower, 1.63 OD 450 nm
- B8 — higher, 2.39 OD 450 nm
- B9 — higher, 1.96 OD 450 nm
- B10 — lower, 1.68 OD 450 nm
